Assay results as given in US20230235054A1 (BIOATLA, published 2023).
Residue numbers refer to the chain shown, from its start. Where two headings read alike, the source gives them in different places.

T1: recombinant human Nectin4 antigen (human, UniProt Q96NY8 32-349)
T1 construct: construct not described
T1 sequence (looked up): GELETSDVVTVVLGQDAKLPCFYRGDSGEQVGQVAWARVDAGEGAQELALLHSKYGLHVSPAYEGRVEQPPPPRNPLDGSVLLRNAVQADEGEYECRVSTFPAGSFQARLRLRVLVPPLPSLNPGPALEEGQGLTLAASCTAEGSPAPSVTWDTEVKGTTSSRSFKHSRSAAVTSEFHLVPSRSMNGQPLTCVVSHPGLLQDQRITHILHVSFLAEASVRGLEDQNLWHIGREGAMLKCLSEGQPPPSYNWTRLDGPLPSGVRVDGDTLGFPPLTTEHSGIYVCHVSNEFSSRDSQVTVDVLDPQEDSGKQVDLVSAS

T2: cynoNectin4 antigen (cynomolgus (cyno), UniProt A0A2K5WES1 32-349)
T2 construct: construct not described; also called cynomolgus (cyno) Nectin-4
T2 sequence: T1 sequence (looked up) with V39A, I230V

T3: RatNectin4-His (rat, UniProt D3ZET1 31-348)
T3 construct: Immobilized on the SPR chip; not shown: His tag
T3 sequence: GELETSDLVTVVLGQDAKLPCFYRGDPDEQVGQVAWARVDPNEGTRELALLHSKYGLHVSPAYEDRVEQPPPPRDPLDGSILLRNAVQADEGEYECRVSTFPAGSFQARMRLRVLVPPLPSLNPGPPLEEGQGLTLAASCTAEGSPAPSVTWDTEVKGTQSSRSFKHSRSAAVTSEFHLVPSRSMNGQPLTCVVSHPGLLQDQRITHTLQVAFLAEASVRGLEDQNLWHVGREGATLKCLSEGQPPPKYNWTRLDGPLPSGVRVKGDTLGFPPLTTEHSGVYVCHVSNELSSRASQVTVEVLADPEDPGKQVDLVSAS

B1: BAP-143-wildtype (antibody, V domains shown)
VH: EVQLVESGGGLVQPGGSLRLSCAASGFTFSSYNMNWVRQAPGKGLEWVSYISSSSSTIYYADSVKGRFTISRDNAKNSLSLQMNSLRDEDTAVYYCARAYYYGMDVWGQGTTVTVSS
VL: DIQMTQSPSSVSASVGDRVTITCRASQGISGWLAWYQQKPGKAPKFLIYAASTLQSGVPSRFSGSGSGTDFTLTISSLQPEDFATYYCQQANSFPPTFGGGTKVEIK
notes: 150 kDa used in SPR; also called BAP143-00-00; benchmark (BM)
B2: BAP-143-06-24-16 (antibody, V domains shown)
VH: EVQLVQSGAEVKKPGATVKISCKVSGFTFSSYNMNWIRQSPSRGLEWLGYISSSSSTIYYADSVKGRFTISRDNSKNTLYLQMNSLRAEDTAVYYCARAYYYGDDVWGQGTLVTVSS
VL: B1 VL with R24H
notes: Used as a conjugate with a linker payload (CAB ADC)
B3: BAP-143-06-33-03 (antibody, V domains shown)
VH: QVQLVQSGAEVKKPGASVKVSCKASGFTFSSYNMNWVRQARGQRLEWIGYISSSSSTIYYADSVKGRFTISRDNSKNTLYLQMNSLRAEDTAVYYCARAYYYGMDKWGQGTLVTVSS
VL: B1 VL with F94E
notes: as for B2
B4: BAP-143-00-05 (antibody, V domains shown)
VH: B1 VH with R98E
VL: B1 VL
notes: as for B2
B5: BAP-143-00-06 (antibody, V domains shown)
VH: B1 VH with M104D
VL: B1 VL
notes: as for B2
B6: BAP-143-00-04 (antibody, V domains shown)
VH: B1 VH with M34D
VL: B1 VL
notes: as for B2
B7: BAP-143-00-01 (antibody, V domains shown)
VH: B1 VH
VL: B1 VL with L33E
notes: as for B2
B8: BAP-143-00-03 (antibody, V domains shown)
VH: B1 VH
VL: B1 VL with P96D
notes: as for B2
B9: BAP-143-07-03-12 (antibody, V domains shown)
VH: B1 VH with V106K
VL: B1 VL with L33E
notes: as for B2
B10: BAP-143-06-33-16 (antibody, V domains shown)
VH: B2 VH
VL: B1 VL with L33E
notes: as for B2

Columns and labels:
[1] = biological target: T1, recombinant human Nectin4 antigen; assay: ELISA, coated antigen, PSB pH 7.4
Description: (§1) 1) Coat ELISA plates with 100 μL of 1 μg/mL recombinant human Nectin4 antigen or cynoNectin4 antigen in carbonate-bicarbonate coating buffer. […] 2) Cover plates with sealing film and incubate overnight at 4° C. [0444] 3) Decant plates and tap out residual liquid on a stack of paper towels. [0445] 4) Wash wells twice by dispensing 200 μL of pH 6.0 or pH 7.4 ELISA incubation buffer to the wells and completely aspirate the contents. [0446] 5) Add 200 μL of pH 6.0 or pH 7.4 ELISA incubation buffer to the wells. Cover with sealing film and place the plate onto a plate shaker set to 50 rpm for 60 minutes at room temperature. [0447] 6) Decant plates and tap out residual liquid on a stack of paper towels. […] 7) Serially dilute test articles in 3-fold dilutions starting at 3000 ng/mL in pH 6.0 or pH 7.4 ELISA incubation buffer. […] 8) Add 100 μL/well of diluted test articles to the plates [0450] 9) Cover with sealing film and place the plates onto a plate shaker set to 50 rpm for 60 minutes at room temperature. [0451] 10) Decant plates and tap out residual liquid on a stack of paper towels. [0452] 11) Wash wells three times by dispensing 200 μL of pH 6.0 or pH 7.4 ELISA wash buffer to the wells and completely aspirate the contents. […] 12) Dilute the HRP secondary antibody at 1:2500 in pH 6.0 or pH 7.4 ELISA incubation buffer. [0454] […] 14) Cover with sealing film and place the plates onto a plate shaker set to 50 rpm for 60 minutes at room temperature. […] 15) Decant plates and tap out residual liquid on a stack of paper towels. […] 16) Wash wells three times by dispensing 200 μL of pH 6.0 or pH 7.4 ELISA wash buffer to the wells and completely aspirate the contents. [0458] 17) Dispense 50 μL per well of the TMB substrate solution into all wells of the plates.

[2] = biological target: T2, cynoNectin4 antigen; assay: ELISA, coated antigen, PSB pH 7.4
Description: as §1

[3] = biological target: T1, recombinant human Nectin4 antigen; assay: ELISA, coated antigen, PSB pH 7.4; remark: listed apart in the source
Description: 1) Coat ELISA plates with 100 μL of 1 μg/mL recombinant human Nectin4 antigen or cynoNectin4 antigen in carbonate-bicarbonate coating buffer. […] 2) Cover plates with sealing film and incubate overnight at 4° C. [0444] 3) Decant plates and tap out residual liquid on a stack of paper towels. [0445] 4) Wash wells twice by dispensing 200 μL of pH 6.0 or pH 7.4 ELISA incubation buffer to the wells and completely aspirate the contents. [0446] 5) Add 200 μL of pH 6.0 or pH 7.4 ELISA incubation buffer to the wells. Cover with sealing film and place the plate onto a plate shaker set to 50 rpm for 60 minutes at room temperature. [0447] 6) Decant plates and tap out residual liquid on a stack of paper towels. […] 7) Serially dilute test articles in 3-fold dilutions starting at 3000 ng/mL in pH 6.0 or pH 7.4 ELISA incubation buffer. […] 8) Add 100 μL/well of diluted test articles to the plates [0450] 9) Cover with sealing film and place the plates onto a plate shaker set to 50 rpm for 60 minutes at room temperature. [0451] 10) Decant plates and tap out residual liquid on a stack of paper towels. [0452] 11) Wash wells three times by dispensing 200 μL of pH 6.0 or pH 7.4 ELISA wash buffer to the wells and completely aspirate the contents. […] 12) Dilute the HRP secondary antibody at 1:2500 in pH 6.0 or pH 7.4 ELISA incubation buffer. [0454] […]

[4] = biological target: T3, RatNectin4-His; assay: SPR, RatNectin4-His immobilized, pH 6.0
Description: (§2) All injections were done at a flow rate of 25 μL/min at 25° C. The sensor surface was activated with 1-ethyl-3-(3-dimethylaminopropyl)-carbodiimide (EDC) and N-hydroxysuccinimide (NHS) (200 mM/50 mM) for 480 seconds. HuNectin4-His (2 μg/mL in 10 mM NaAc, pH4.5) was injected for 480s and the surface was inactivated by injecting 1M ethanolamine-HCl for 480s. CynoNectin4 was immobilized using the same conditions as described for huNectin4-His, except that the cynoNectin4 was diluted into 10 mM NaAc buffer having pH 5.0. The control surface was activated and deactivated using the same conditions, but without injecting protein. PBST buffer (PBS pH 7.4 with 0.05% TWEEN20™) was used as running buffer for the surface preparation. The running solution was switched to PBST with 30 mM sodium bicarbonate with the pH adjusted as indicated in the figures before the analyte injections. The instrument was equilibrated with the running solution for one hour before the first analyte injection.
(§3) The off-rate was measured for 360s. The chip surface was regenerated after each cycle of interaction analysis by injecting 6 μL of 10 mM glycine (pH 2.0). Flow cells 1 and 3 without immobilized protein were used as control surfaces for reference subtraction.
(§4) In addition, data with buffer only as analyte (0 nM analyte) was subtracted from each run. Double subtracted data was fitted with the provided analysis software Analyzer R2 (Sierra Sensors) using a 1:1 binding model. A molecular weight of 150 kDa was used to calculate the molar concentrations of the analytes. RatNectin4-His was immobilized in FC3 using the same conditions as described for cynoNectin4.

[5] = biological target: T3, RatNectin4-His; assay: SPR, RatNectin4-His immobilized, pH 6.5
Description: as §2, §3, §4

Binder | EC50 [1] [µg/mL] | EC50 [2] [µg/mL] | EC50 [3] [µg/mL] | Kd [4] [pM] | Kd [5] [pM] | koff [4] [s⁻¹] | kon [4] [M⁻¹ s⁻¹] | koff [5] [s⁻¹] | kon [5] [M⁻¹ s⁻¹]
B1 | 0.0202 | 0.0128 | 0.0216 | 175 | 108 | – | – | – | –
B2 | – | 0.0282 | 0.133 | 104 | 37.8 | 0.000635 | 6.1e+06 | 0.000128 | 3.39e+06
B3 | – | 0.0723 | – | – | – | – | – | – | –
B4 | 0.141 | – | – | – | – | – | – | – | –
B5 | 0.0698 | – | – | – | – | – | – | – | –
B6 | 0.061 | – | – | – | – | – | – | – | –
B7 | – | – | – | 1170 | 1360 | 0.00159 | 1.36e+06 | 0.000953 | 700000
B8 | 0.245 | – | – | – | – | – | – | – | –
B9 | – | 0.086 | – | 738 | 1100 | 0.0012 | 1.62e+06 | 0.000868 | 787000
B10 | – | – | – | 154 | 101 | 0.000394 | 2.57e+06 | 0.000304 | 3.01e+06
